Measured values published in article PMC5794333, “Identification of osmoadaptive strategies in the halophile, heterotrophic ciliate Schmidingerothrix salinarum” (PLoS Biology, 2018).

B1: ICDHE.coli (Escherichia coli K-12) (protein)
chain: MESKVVVPAQGKKITLQNGKLNVPENPIIPYIEGDGIGVDVTPAMLKVVDAAVEKAYKGERKISWMEIYTGEKSTQVYGQDVWLPAETLDLIREYRVAIKGPLTTPVGGGIRSLNVALRQELDLYICLRPVRYYQGTPSPVKHPELTDMVIFRENSEDIYAGIEWKADSADAEKVIKFLREEMGVKKIRFPEHCGIGIKPCSEEGTKRLVRAAIEYAIANDRDSVTLVHKGNIMKFTEGAFKDWGYQLAREEFGGELIDGGPWLKVKNPNTGKEIVIKDVIADAFLQQILLRPAEYDVIACMNLNGDYISDALAAQVGGIGIAPGANIGDECALFEATHGTAPKYAGQDKVNPGSIILSAEMMLRHMGWTEAADLIVKGMEGAINAKTVTYDFERLMDGAKLLKCSEFGDAIIENM
notes: N-terminal His-tag, cloned from genomic DNA into pETDuet-1, E. coli BL21; Ni-NTA
B2: MDHE.coli (Escherichia coli K-12) (protein)
chain: MKVAVLGAAGGIGQALALLLKTQLPSGSELSLYDIAPVTPGVAVDLSHIPTAVKIKGFSGEDATPALEGADVVLISAGVARKPGMDRSDLFNVNAGIVKNLVQQVAKTCPKACIGIITNPVNTTVAIAAEVLKKAGVYDKNKLFGVTTLDIIRSNTFVAELKGKQPGEVEVPVIGGHSGVTILPLLSQVPGVSFTEQEVADLTKRIQNAGTEVVEAKAGGGSATLSMGQAAARFGLSLVRALQGEQGVVECAYVEGDGQYARFFSQPLLLGKNGVEERKSIGTLSAFEQNALEGMLDTLKKDIALGEEFVNK

Legend:
purified protein [1] = substrate: O=C(O)CC(C(=O)O)C(O)C(=O)O; experiment: purified protein; type: biochemical, Escherichia coli; details: 0.05 M NaCl, 0.8 mM NADP+, 1 mM MgCl2, 32.5 mM Tris/HCl pH 7.5, concentration as DL-isocitrate
purified protein [2] = substrate: O=C(O)CC(=O)C(=O)O; experiment: purified protein; details: 0.05 M NaCl, 0.3 mM NADH, 32.5 mM Tris/HCl pH 7.5

| Protein | Km (purified protein [1]) | Vmax (purified protein [1]) | Km (purified protein [2]) | Vmax (purified protein [2]) |
| --- | --- | --- | --- | --- |
| B1 | 21 µM | 46 µmol/min/mg | – | – |
| B2 | – | – | 22 µM | 1490 µmol/min/mg |
